Measurements reported in the Human Domainome abundance scans (Beltran et al. 2025).
± gives the uncertainty stated by the source.

B1: Pituitary-specific positive transcription factor 1, residues 130 to 198; numbered along this chain, P28069 (parent)
chain: RELEKFANEFKVRRIKLGYTQTNVGEALAAVHGSEFSQTTICRFENLQLSFKNACKLKAILSKWLEEAE

Variants of: B1
Assay: abundance fitness (aPCA) (normalised: wild type 0, dead -1); higher = more abundant; growth selection in yeast, the domain comes from the species named
Conditions: Homo sapiens
Variant Y19V has an abundance fitness of -0.855 ± 0.34.
Y19R showed an abundance fitness of -0.718 ± 0.23.
Work on E67A yielded an abundance fitness of -0.214 ± 0.071.
E67Q gave an abundance fitness of -0.125 ± 0.11.
In the case of E67W, the abundance fitness is reported as -0.203 ± 0.1.
Q38T gave an abundance fitness of 0.277 ± 0.29.
A68N gave an abundance fitness of -0.24 ± 0.077.
For A68M, the abundance fitness was -0.061 ± 0.084.
Variant A68V has an abundance fitness of -0.071 ± 0.071.
E45M showed an abundance fitness of -0.893 ± 0.31.
Work on E45C yielded an abundance fitness of -0.763 ± 0.2.
E45G gave an abundance fitness of -0.961 ± 0.17.
Variant E45S has an abundance fitness of -0.92 ± 0.1.
Work on E45Q yielded an abundance fitness of -0.767 ± 0.23.
Variant S62Y has an abundance fitness of -0.585 ± 0.17.
Work on S62G yielded an abundance fitness of -0.239 ± 0.11.
Variant S62I has an abundance fitness of 0.001 ± 0.081.
In the case of S62W, the abundance fitness is reported as -0.009 ± 0.053.
Work on A54V yielded an abundance fitness of -0.756 ± 0.42.
For A54Q, the abundance fitness was -0.473 ± 0.18.
Work on A54S yielded an abundance fitness of 0.06 ± 0.13.
Variant A54L has an abundance fitness of -0.033 ± 0.12.
Work on A27P yielded an abundance fitness of -0.868 ± 0.23.
Variant A27C has an abundance fitness of -0.289 ± 0.28.
With A27K the abundance fitness was -0.483 ± 0.1.
Work on A27S yielded an abundance fitness of -0.106 ± 0.051.
Work on F51P yielded an abundance fitness of -0.142 ± 0.078.
Variant F51S has an abundance fitness of -0.189 ± 0.047.
F51I showed an abundance fitness of -0.1 ± 0.069.
In the case of F51W, the abundance fitness is reported as -0.042 ± 0.16.
F51V gave an abundance fitness of 0.021 ± 0.057.
For F51E, the abundance fitness was 0.144 ± 0.13.
For F51L, the abundance fitness was -0.19 ± 0.063.
Work on F51G yielded an abundance fitness of -0.39 ± 0.15.
T22C showed an abundance fitness of -0.108 ± 0.079.
Variant T22L has an abundance fitness of -0.156 ± 0.062.
In the case of T22K, the abundance fitness is reported as 0.267 ± 0.095.
For T22P, the abundance fitness was -0.573 ± 0.45.
In the case of T22E, the abundance fitness is reported as 0.491 ± 0.13.
In the case of T22Y, the abundance fitness is reported as -0.392 ± 0.2.
For T22N, the abundance fitness was -0.063 ± 0.097.
T22A showed an abundance fitness of 0.357 ± 0.068.
Variant T22M has an abundance fitness of 0.08 ± 0.082.
With I15Q the abundance fitness was 0.042 ± 0.063.
In the case of I15N, the abundance fitness is reported as -0.546 ± 0.31.
In the case of I15D, the abundance fitness is reported as -0.89 ± 0.26.
For I15S, the abundance fitness was -0.272 ± 0.055.
In the case of I15K, the abundance fitness is reported as -0.054 ± 0.073.
I15R gave an abundance fitness of -0.083 ± 0.055.
With A59N the abundance fitness was 0.078 ± 0.076.
In the case of A59Y, the abundance fitness is reported as -0.298 ± 0.099.
With A59V the abundance fitness was 0.116 ± 0.048.
In the case of A59K, the abundance fitness is reported as 0.025 ± 0.062.
In the case of A59C, the abundance fitness is reported as -0.084 ± 0.056.
Variant A59S has an abundance fitness of 0.007 ± 0.042.
In the case of A59I, the abundance fitness is reported as 0.049 ± 0.064.
With A59W the abundance fitness was -0.61 ± 0.1.
Work on A59L yielded an abundance fitness of -0.122 ± 0.046.
A59M showed an abundance fitness of -0.076 ± 0.064.
For R43Q, the abundance fitness was 0.11 ± 0.12.
Variant R43L has an abundance fitness of -0.181 ± 0.052.
Work on R43I yielded an abundance fitness of -0.888 ± 0.3.
For R43G, the abundance fitness was -0.388 ± 0.14.
R43C gave an abundance fitness of -0.559 ± 0.12.
With F6H the abundance fitness was -0.726 ± 0.12.
Variant F6P has an abundance fitness of -0.835 ± 0.19.
F6Q gave an abundance fitness of -0.916 ± 0.13.
For F6K, the abundance fitness was -0.756 ± 0.18.
Work on F6G yielded an abundance fitness of -0.688 ± 0.053.
Variant F6Y has an abundance fitness of -0.837 ± 0.1.
T40F showed an abundance fitness of -0.911 ± 0.25.
T40N showed an abundance fitness of -0.71 ± 0.29.
Work on T40H yielded an abundance fitness of -0.403 ± 0.13.
T40C showed an abundance fitness of -0.512 ± 0.22.
In the case of T40E, the abundance fitness is reported as -0.193 ± 0.21.
T40A gave an abundance fitness of -0.235 ± 0.081.
K56N gave an abundance fitness of -0.131 ± 0.11.
Work on K56E yielded an abundance fitness of -0.132 ± 0.056.
With K56A the abundance fitness was -0.226 ± 0.064.
Work on K56D yielded an abundance fitness of -0.366 ± 0.1.
Work on K56R yielded an abundance fitness of 0.005 ± 0.038.
In the case of L47D, the abundance fitness is reported as -0.689 ± 0.15.
Variant L47R has an abundance fitness of -0.065 ± 0.066.
